The subject of series [1] is HeLa Kyoto. Nature of the series: solubility in G1/S (NP-40 vs SDS abundance) (log2 ratio); higher = more soluble. To be noted: cell cycle stage: G1/S.
In series [2] the test system is HeLa Kyoto. The series is described as follows: solubility change mitosis vs G1/S (difference of NP-40 vs SDS log2 ratios) (log2 ratio difference); higher = more soluble in mitosis.
Series [3] deals with HeLa Kyoto. The series is described as follows: thermal stability score vs G1/S (z-score of summed log2 fold changes over temperatures); higher = more thermally stable than in G1/S.
The test system of series [4] is HeLa Kyoto. Nature of the series: melting temperature (median over replicates), in situ; higher = more thermally stable.
Setting [5] is: cell cycle stage: early G1 (4.5 h after nocodazole release).
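For melting temperature (median over replicates), in situ in this document: HeLa Kyoto cells synchronized by double thymidine or nocodazole block, proteins quantified by TMT10plex mass spectrometry, three independent biological replicates.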
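For solubility change mitosis vs G1/S (difference of NP-40 vs SDS log2 ratios) in this document: synchronized HeLa Kyoto cells (double thymidine block for G1/S, nocodazole release for mitosis), protein amounts in NP-40 versus SDS lysates quantified by mass spectrometry, three biological replicates.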
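For solubility in G1/S (NP-40 vs SDS abundance) in this document: HeLa Kyoto cells arrested at G1/S by double thymidine block, proteins quantified by TMT10plex mass spectrometry in mild NP-40 versus SDS extracts, three biological replicates.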
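For thermal stability score vs G1/S (z-score of summed log2 fold changes over temperatures) in this document: synchronized HeLa Kyoto cells, proteins quantified by TMT10plex mass spectrometry, three biological replicates, mitosis taken 0.5 h after nocodazole release, G1/S directly after double thymidine block.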

With “MASKEMFEDTVEERVINEEYKIWKKNTPFLYDLVMTHALQWPSLTVQWLPEVTKPEGKDYALHWLVLGTHTSDEQNHLVVARVHIPNDDAQFDASHCDSDKGEFGGFGSVTGKIECEIKINHEGEVNRARYMPQNPHIIATKTPSSDVLVFDYTKHPAKPDPSGECNPDLRLRGHQKEGYGLSWNSNLSGHLLSASDDHTVCLWDINAGPKEGKIVDAKAIFTGHSAVVEDVAWHLLHESLFGSVADDQKLMIWDTRSNTTSKPSHLVDAHTAEVNCLSFNPYSEFILATGSADKTVALWDLRNLKLKLHTFESHKDEIFQVHWSPHNETILASSGTDRRLNVWDLSKIGEEQSAEDAEDGPPELLFIHGGHTAKISDFSWNPNEPWVICSVSEDNIMQIWQMAENIYNDEESDVTTSELEGQGS [RBBP7]”, the “solubility in G1/S (log2)” value with HeLa Kyoto [1] turned out to be 0.0292. Further, the “solubility change mitosis (log2)” value in the series on HeLa Kyoto [2] was -0.157. The thermal stability score with HeLa Kyoto [3] (setting [5]) was -0.845; with HeLa Kyoto [3] (cell cycle stage: mitosis) it was -1.83. The values for the melting temperature in the series on HeLa Kyoto [4] (cell cycle stage: G1/S) and with HeLa Kyoto [4] (cell cycle stage: mitosis) were 53 °C and 53.3 °C, respectively.
Take “MNRTKGDEEEYWNSSKFKAFTFDDEDDELSQLKESKRAVNSLRDFVDDDDDDDLERVSWSGEPVGSISWSIRETAGNSGSTHEGREQLKSRNSFSSYAQLPKPTSTYSLSSFFRGRTRPGSFQSLSDALSDTPAKSYAPELGRPKGEYRDYSNDWSPSDTVRRLRKGKVCSLERFRSLQDKLQLLEEAVSMHDGNVITAVLIFLKRTLSKEILFRELEVRQVALRHLIHFLKEIGDQKLLLDLFRFLDRTEELALSHYREHLNIQDPDKRKEFLKTCVGLPFSAEDSAHIQDHYTLLERQIIIEANDRHLESAGQTEIFRKHPRKASILNMPLVTTLFYSCFYHYTEAEGTFSSPVNLKKTFKIPDKQYVLTALAARAKLRAWNDVDALFTTKNWLGYTKKRAPIGFHRVVEILHKNNAPVQILQEYVNLVEDVDTKLNLATKFKCHDVVIDTYRDLKDRQQLLAYRSKVDKGSAEEEKIDALLSSSQIRWKN [VIPAS39]”: the “solubility in G1/S (log2)” value in the series on HeLa Kyoto [1] worked out at 0.111. Moreover, the “solubility change mitosis (log2)” value with HeLa Kyoto [2] is -0.125. In addition, the thermal stability score with HeLa Kyoto [3] (setting [5]) amounted to 0.126; in the series with HeLa Kyoto [3] (cell cycle stage: mitosis), 0.142. Besides, the melting temperature in the series on HeLa Kyoto [4] (cell cycle stage: G1/S) worked out at 49.5 °C; in the series with HeLa Kyoto [4] (cell cycle stage: mitosis) it was 49.2 °C.
As to “MERAVQGTDGGGGSNSSSRSSSRATSAGSSPSCSLAGRGVSSRSAAAGLGGGGSRSSPGSVAASPSGGGGRRREPALEGVLSKYTNLLQGWQNRYFVLDFEAGILQYFVNEQSKHQKPRGVLSLSGAIVSLSDEAPHMLVVYSANGEMFKLRAADAKEKQFWVTQLRACAKYHMEMNSKSAPSSRSRSLTLLPHGTPNSASPCSQRHLSVGAPGVVTITHHKSPAAARRAKSQYSGQLHEVREMMNQVEGQQKNLVHAIESLPGSGPLTALDQDLLLLKATSAATLSCLGECLNLLQQSVHQAGQPSQKPGASENILGWHGSKSHSTEQLKNGTLGSLPSASANITWAILPNSAEDEQTSQPEPEPNSGSELVLSEDEKSDNEDKEETELGVMEDQRSIILHLISQLKLGMDLTKVVLPTFILEKRSLLEMYADFMAHPDLLLAITAGATPEERVICFVEYYLTAFHEGRKGALAKKPYNPIIGETFHCSWEVPKDRVKPKRTASRSPASCHEHPMADDPSKSYKLRFVAEQVSHHPPISCFYCECEEKRLCVNTHVWTKSKFMGMSVGVSMIGEGVLRLLEHGEEYVFTLPSAYARSILTIPWVELGGKVSINCAKTGYSATVIFHTKPFYGGKVHRVTAEVKHNPTNTIVCKAHGEWNGTLEFTYNNGETKVIDTTTLPVYPKKIRPLEKQGPMESRNLWREVTRYLRLGDIDAATEQKRHLEEKQRVEERKRENLRTPWKPKYFIQEGDGWVYFNPLWKAH [OSBPL10]”, the “solubility in G1/S (log2)” value in the series on HeLa Kyoto [1] was 0.0171. In addition, in the series on HeLa Kyoto [2], the “solubility change mitosis (log2)” value was 0.13. Moreover, the thermal stability score in the series with HeLa Kyoto [3] (setting [5]) is -0.0143; in the series with HeLa Kyoto [3] (cell cycle stage: mitosis), -0.526. The figures for the melting temperature in the series with HeLa Kyoto [4] (cell cycle stage: G1/S) and in the series on HeLa Kyoto [4] (cell cycle stage: mitosis) were 48.6 °C and 51 °C, respectively.
For “MELDSALEAPSQEDSNLSEELSHSAFGQAFSKILHCLARPEARRGNVKDAVLKDLGDLIEATEFDRLFEGTGARLRGMPETLGQVAKALEKYAAPSKEEEGGGDGHSEAAEKAAQVGLLFLKLLGKVETAKNSLVGPAWQTGLHHLAGPVYIFAITHSLEQPWTTPRSREVAREVLTSLLQVTECGSVAGFLHGENEDEKGRLSVILGLLKPDLYKESWKNNPAIKHVFSWTLQQVTRPWLSQHLERVLPASLVISDDYQTENKILGVHCLHHIVLNVPAADLLQYNRAQVLYHAISNHLYTPEHHLIQAVLLCLLDLFPILEKTLHWKGDGARPTTHCDEVLRLILTHMEPEHRLLLRRTYARNLPAFVNRLGILTVRHLKRLERVIIGYLEVYDGPEEEARLKILETLKLLMQHTWPRVSCRLVVLLKALLKLICDVARDPNLTPESVKSALLQEATDCLILLDRCSQGRVKGLLAKIPQSCEDRKVVNYIRKVQQVSEGAPYNGT [TTI2]”, in the series on HeLa Kyoto [1], the “solubility in G1/S (log2)” value was 0.208. In addition, the “solubility change mitosis (log2)” value in the series with HeLa Kyoto [2] is -0.201. Further, the figures for the thermal stability score in the series with HeLa Kyoto [3] (setting [5]) and in the series on HeLa Kyoto [3] (cell cycle stage: mitosis) were 0.152 and 0.904, respectively. Also, the melting temperature worked out at 50.5 °C in the series on HeLa Kyoto [4] (cell cycle stage: G1/S) and 49.7 °C with HeLa Kyoto [4] (cell cycle stage: mitosis).
As for “MGKVRGLRARVHQAAVRPKGEAAPGPAPPAPEATPPPASAAGKDWAFINTNIFARTKIDPSALVQKLELDVRSVTSVRRGEAGSSARSVPSIRRGAEAKTVLPKKEKMKLRREQWLQKIEAIKLAEQKHREERRRRATVVVGDLHPLRDALPELLGLEAGSRRQARSRESNKPRPSELSRMSAAQRQQLLEEERTRFQELLASPAYRASPLVAIGQTLARQMQLEDGGQL [FAM207A]”, the “solubility in G1/S (log2)” value with HeLa Kyoto [1] was -0.11. In addition, the “solubility change mitosis (log2)” value with HeLa Kyoto [2] was determined as 0.342. Moreover, the values for the thermal stability score in the series with HeLa Kyoto [3] (setting [5]) and in the series on HeLa Kyoto [3] (cell cycle stage: mitosis) were 0.13 and 0.618, respectively. For the same sequence, the melting temperature in the series on HeLa Kyoto [4] (cell cycle stage: G1/S) was determined as 48.3 °C; with HeLa Kyoto [4] (cell cycle stage: mitosis) it was 48.5 °C.
For “MRLKIGFILRSLLVVGSFLGLVVLWSSLTPRPDDPSPLSRMREDRDVNDPMPNRGGNGLAPGEDRFKPVVPWPHVEGVEVDLESIRRINKAKNEQEHHAGGDSQKDIMQRQYLTFKPQTFTYHDPVLRPGILGNFEPKEPEPPGVVGGPGEKAKPLVLGPEFKQAIQASIKEFGFNMVASDMISLDRSVNDLRQEECKYWHYDENLLTSSVVIVFHNEGWSTLMRTVHSVIKRTPRKYLAEIVLIDDFSNKEHLKEKLDEYIKLWNGLVKVFRNERREGLIQARSIGAQKAKLGQVLIYLDAHCEVAVNWYAPLVAPISKDRTICTVPLIDVINGNTYEIIPQGGGDEDGYARGAWDWSMLWKRVPLTPQEKRLRKTKTEPYRSPAMAGGLFAIEREFFFELGLYDPGLQIWGGENFEISYKIWQCGGKLLFVPCSRVGHIYRLEGWQGNPPPIYVGSSPTLKNYVRVVEVWWDEYKDYFYASRPESQALPYGDISELKKFREDHNCKSFKWFMEEIAYDITSHYPLPPKNVDWGEIRGFETAYCIDSMGKTNGGFVELGPCHRMGGNQLFRINEANQLMQYDQCLTKGADGSKVMITHCNLNEFKEWQYFKNLHRFTHIPSGKCLDRSEVLHQVFISNCDSSKTTQKWEMNNIHSV [GALNT7]”, in the series on HeLa Kyoto [1], the “solubility in G1/S (log2)” value is -0.206. The “solubility change mitosis (log2)” value in the series on HeLa Kyoto [2] is -0.135. In addition, the thermal stability score with HeLa Kyoto [3] (setting [5]) amounted to 0.0877; in the series on HeLa Kyoto [3] (cell cycle stage: mitosis), 0.865. Moreover, the melting temperature in the series with HeLa Kyoto [4] (cell cycle stage: G1/S) is 53.7 °C; in the series on HeLa Kyoto [4] (cell cycle stage: mitosis), 53.8 °C.

These data come from the supplement of paper PMC5998384.
